Tests used:
RsNNMT = target: T1, RsNNMT (Rauvolfia serpentina, UniProt A0A075D6M1); assay: LC-MS/MS detection of ajmaline in coupled reaction; type: biochemical; conditions: 100 μM SAM, 20 mM Tris-HCl pH 7.5, 30 °C; norajmaline formed in situ by RsAAE1/2
T1 construct: gene NNMT; N-terminal His tag, purified from E. coli

[1] = substrate: C/C=C1/[C@@H](O)N2[C@H]3C[C@@]45c6ccccc6N[C@H]4[C@@H]2C[C@@H]1C3[C@H]5OC(C)=O; assay: LC-MS/MS product quantification, Michaelis-Menten fit; type: biochemical, Rauvolfia serpentina; conditions: 1 mM NADPH, 20 mM Tris-HCl pH 7.5, 30 °C, 2 min, 19,20-reduction
Excerpt: LC-MS/MS product quantification, Michaelis-Menten fit on tDHVR (RsRR4, N-terminal truncated; tRR4)

T1 sequence (A0A075D6M1 whole entry): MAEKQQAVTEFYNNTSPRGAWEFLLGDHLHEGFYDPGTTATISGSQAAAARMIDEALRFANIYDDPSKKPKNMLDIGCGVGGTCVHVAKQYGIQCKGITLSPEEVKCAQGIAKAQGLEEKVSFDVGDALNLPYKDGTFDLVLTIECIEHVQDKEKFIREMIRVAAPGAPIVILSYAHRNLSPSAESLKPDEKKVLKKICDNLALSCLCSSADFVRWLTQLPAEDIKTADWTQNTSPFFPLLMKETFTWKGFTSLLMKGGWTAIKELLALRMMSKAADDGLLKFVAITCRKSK

| Molecule | LC-MS/MS detection of ajmaline in coupled reaction (RsNNMT) | Km [1] [µM] | kcat [1] [s⁻¹] |
| --- | --- | --- | --- |
| CC[C@H]1[C@@H]2C[C@H]3[C@@H]4Nc5ccccc5[C@]45C[C@@H]([C@H]2[C@H]5O)N3[C@@H]1O [norajmaline] | ajmaline, also confirmed with an authentic standard, was produced at the expense of norajmaline |  |  |
| tDHVR (RsRR4, N-terminal truncated; tRR4) (Rauvolfia serpentina) (protein, N-terminally truncated 363-residue version of the 413-residue full protein (extra N-terminal 50 removed); his-tagged in pET30b(+), E. coli, Ni-NTA; OQ591882 is printed for both DHVR and RsAAE1) MAGKSPEEQHPVKAYGWAATDSSGILSPFKFSRRATGDHDVRVKILYAGVCHSDLQSARNDMGCFTYPLVPGFETVGTATEVGSKVTKVKVGDKVAVGIMVGSCGKCDECVNDRECYCPEVITSYGRIDHDGTPTYGGFSSETVANEKFVFCFPEKLPMAAGAPLLNAGVSVYSAMRFYGLDKPGMHLGVVGLGGLGHLAVKFAKAFGVKVTVISTSTSKKGEAINDLGADAFLVSTDAEQMQAGSGTLDGILDTVPVVHPIEALLGLLKNHTKLVLVGATMGSFELPILPLGVGRKSVVSTIGGSTKETQEMLDFAAEHDITASVEIIPMDYVNTAMERIEKGDVRYRFVIDIGNTLTPPES |  | 32.0 | 10.4 |

Source: paper PMC10784492, “De novo biosynthesis of antiarrhythmic alkaloid ajmaline” (Nature Communications, 2024)
